Tests used:
[1] = target: SHP2-C SH2; test: SH2 binding enrichment of the phosphorylated peptide, bacterial display (enrichment ratio); higher = better substrate or ligand; peptides without Tyr show the background
[2] = target: c-Src SH2; test: as above
[3] = target: Grb2 SH2 (UniProt P62993); test: as above
[4] = system: AncSZ; test: phosphorylation enrichment, bacterial display (enrichment ratio); higher = better substrate or ligand; peptides without Tyr show the background
[5] = target: Jak2 (UniProt O60674); test: as above
[6] = target: MERTK (UniProt Q12866); test: as above
[7] = system: c-Abl (mouse); test: as above
[8] = target: EPHB2 (UniProt P29323); test: as above
[9] = system: Fer (mouse); test: as above
[10] = system: c-Src; test: as above
[11] = target: EPHB1 (UniProt P54762); test: as above
[12] = target: FGFR1 (UniProt P11362); test: as above
[13] = target: Fyn (UniProt P06241); test: as above
[14] = target: Fes (UniProt P07332); test: as above
[15] = target: Hck (UniProt P08631); test: as above
[16] = target: FGFR3 (UniProt P22607); test: as above
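Wherever SH2 binding enrichment of the phosphorylated peptide, bacterial display is given: peptide library displayed on the E. coli surface as eCPX fusions, selected cells deep-sequenced, score is each peptide's frequency after selection divided by its frequency in the input.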
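Wherever phosphorylation enrichment, bacterial display is given: 11-residue human phosphosite peptides and single-mutation variants displayed on the E. coli surface, counted by deep sequencing, each peptide's frequency after selection divided by its frequency in the unselected input library; frequency after pTyr selection over input frequency; kinase dosed for 20-30% of maximal phosphorylation in three min.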

Chain of Grb2 SH2 (P62993 whole entry, looked up): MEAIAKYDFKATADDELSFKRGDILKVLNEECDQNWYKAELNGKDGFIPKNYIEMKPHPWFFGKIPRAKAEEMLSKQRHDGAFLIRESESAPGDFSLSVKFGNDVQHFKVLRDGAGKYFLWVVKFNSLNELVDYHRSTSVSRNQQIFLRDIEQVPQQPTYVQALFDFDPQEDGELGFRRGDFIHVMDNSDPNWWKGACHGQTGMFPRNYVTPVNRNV
Chain of Jak2 (O60674 whole entry, looked up): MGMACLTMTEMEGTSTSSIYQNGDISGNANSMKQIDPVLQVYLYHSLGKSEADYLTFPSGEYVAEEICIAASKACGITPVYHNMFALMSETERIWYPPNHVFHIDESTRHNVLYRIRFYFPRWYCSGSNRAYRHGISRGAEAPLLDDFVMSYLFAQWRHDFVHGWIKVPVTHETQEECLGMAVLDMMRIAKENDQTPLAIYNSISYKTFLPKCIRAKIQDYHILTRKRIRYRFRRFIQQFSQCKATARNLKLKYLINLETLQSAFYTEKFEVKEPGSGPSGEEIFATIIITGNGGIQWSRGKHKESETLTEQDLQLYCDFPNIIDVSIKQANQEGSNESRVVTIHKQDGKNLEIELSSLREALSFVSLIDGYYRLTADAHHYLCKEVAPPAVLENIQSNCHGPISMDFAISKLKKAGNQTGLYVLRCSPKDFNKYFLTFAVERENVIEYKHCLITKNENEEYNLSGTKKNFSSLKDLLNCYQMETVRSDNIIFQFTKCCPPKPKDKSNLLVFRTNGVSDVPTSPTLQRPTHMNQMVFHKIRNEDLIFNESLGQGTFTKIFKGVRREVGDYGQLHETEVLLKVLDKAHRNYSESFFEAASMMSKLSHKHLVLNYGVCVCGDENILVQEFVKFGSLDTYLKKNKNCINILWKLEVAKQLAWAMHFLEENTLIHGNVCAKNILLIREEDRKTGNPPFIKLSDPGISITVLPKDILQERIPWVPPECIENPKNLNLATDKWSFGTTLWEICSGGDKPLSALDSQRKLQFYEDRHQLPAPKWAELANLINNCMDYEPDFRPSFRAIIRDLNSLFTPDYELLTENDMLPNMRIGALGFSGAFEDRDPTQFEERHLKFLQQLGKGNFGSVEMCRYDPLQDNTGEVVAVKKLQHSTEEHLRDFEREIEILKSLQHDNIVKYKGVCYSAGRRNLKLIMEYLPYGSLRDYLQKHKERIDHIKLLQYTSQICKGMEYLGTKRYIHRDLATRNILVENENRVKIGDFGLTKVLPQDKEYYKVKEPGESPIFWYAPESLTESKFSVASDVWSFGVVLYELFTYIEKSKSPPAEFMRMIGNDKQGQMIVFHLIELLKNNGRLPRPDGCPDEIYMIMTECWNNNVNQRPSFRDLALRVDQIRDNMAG
Chain of Fyn (P06241 whole entry, looked up): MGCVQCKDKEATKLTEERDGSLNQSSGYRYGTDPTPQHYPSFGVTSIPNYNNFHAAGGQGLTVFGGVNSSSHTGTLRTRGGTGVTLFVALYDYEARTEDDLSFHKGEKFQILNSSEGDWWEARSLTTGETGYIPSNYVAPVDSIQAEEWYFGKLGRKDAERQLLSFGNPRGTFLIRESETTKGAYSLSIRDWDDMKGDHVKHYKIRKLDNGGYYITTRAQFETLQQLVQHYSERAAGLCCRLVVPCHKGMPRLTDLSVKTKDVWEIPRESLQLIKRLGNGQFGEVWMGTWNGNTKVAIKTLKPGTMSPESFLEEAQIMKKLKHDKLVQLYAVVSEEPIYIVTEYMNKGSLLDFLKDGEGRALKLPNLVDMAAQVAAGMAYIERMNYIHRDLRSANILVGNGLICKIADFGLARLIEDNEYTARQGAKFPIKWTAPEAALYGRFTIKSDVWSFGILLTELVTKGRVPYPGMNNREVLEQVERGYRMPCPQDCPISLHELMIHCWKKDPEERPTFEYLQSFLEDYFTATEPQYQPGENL
Chain of MERTK (Q12866 whole entry, looked up): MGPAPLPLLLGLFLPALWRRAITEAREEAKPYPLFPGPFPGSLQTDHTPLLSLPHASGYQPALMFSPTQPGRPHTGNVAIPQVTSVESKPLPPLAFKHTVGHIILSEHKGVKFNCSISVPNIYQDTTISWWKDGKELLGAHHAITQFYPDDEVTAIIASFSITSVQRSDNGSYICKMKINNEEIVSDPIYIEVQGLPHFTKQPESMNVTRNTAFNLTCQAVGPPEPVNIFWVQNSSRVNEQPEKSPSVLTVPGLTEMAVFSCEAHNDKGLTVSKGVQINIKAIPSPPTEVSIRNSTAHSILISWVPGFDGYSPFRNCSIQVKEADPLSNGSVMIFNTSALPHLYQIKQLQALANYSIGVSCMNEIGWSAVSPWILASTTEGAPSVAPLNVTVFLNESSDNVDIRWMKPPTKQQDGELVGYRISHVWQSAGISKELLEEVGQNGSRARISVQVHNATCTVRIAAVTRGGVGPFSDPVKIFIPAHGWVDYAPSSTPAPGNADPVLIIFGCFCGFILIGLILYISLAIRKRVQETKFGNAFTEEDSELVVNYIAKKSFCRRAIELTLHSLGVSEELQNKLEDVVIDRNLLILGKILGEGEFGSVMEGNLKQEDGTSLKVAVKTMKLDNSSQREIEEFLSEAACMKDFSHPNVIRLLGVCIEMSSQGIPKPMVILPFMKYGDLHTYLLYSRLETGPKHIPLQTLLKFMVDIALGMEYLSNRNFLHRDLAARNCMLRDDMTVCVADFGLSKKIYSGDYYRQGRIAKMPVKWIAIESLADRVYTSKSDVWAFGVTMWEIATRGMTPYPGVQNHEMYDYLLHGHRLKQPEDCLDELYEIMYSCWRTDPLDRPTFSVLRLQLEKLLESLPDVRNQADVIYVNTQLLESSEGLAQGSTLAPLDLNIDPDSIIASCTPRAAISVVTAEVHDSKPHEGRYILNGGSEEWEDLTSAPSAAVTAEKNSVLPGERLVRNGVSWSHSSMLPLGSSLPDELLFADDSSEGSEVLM
Chain of FGFR1 (P11362 whole entry, looked up): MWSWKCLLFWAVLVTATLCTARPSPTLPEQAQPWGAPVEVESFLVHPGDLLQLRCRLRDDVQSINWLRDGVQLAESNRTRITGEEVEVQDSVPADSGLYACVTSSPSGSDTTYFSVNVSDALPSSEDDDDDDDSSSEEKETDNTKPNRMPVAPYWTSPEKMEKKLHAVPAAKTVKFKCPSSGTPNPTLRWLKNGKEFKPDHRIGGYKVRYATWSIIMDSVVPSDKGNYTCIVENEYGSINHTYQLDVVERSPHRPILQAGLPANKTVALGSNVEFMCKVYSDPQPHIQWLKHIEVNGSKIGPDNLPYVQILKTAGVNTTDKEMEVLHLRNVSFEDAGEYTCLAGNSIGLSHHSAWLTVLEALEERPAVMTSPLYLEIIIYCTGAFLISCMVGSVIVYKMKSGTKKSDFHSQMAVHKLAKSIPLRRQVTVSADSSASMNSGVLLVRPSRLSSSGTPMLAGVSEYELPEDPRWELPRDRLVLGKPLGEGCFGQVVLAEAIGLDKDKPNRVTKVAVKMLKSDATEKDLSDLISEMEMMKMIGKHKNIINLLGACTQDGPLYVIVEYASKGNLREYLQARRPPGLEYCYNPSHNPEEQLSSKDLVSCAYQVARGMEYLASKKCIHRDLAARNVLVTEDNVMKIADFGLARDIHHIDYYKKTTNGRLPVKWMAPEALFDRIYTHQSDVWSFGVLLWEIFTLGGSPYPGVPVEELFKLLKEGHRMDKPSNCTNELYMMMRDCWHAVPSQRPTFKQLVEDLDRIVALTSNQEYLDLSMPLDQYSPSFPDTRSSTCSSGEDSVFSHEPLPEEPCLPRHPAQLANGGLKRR
Chain of FGFR3 (P22607 whole entry, looked up, the tested form may be a part): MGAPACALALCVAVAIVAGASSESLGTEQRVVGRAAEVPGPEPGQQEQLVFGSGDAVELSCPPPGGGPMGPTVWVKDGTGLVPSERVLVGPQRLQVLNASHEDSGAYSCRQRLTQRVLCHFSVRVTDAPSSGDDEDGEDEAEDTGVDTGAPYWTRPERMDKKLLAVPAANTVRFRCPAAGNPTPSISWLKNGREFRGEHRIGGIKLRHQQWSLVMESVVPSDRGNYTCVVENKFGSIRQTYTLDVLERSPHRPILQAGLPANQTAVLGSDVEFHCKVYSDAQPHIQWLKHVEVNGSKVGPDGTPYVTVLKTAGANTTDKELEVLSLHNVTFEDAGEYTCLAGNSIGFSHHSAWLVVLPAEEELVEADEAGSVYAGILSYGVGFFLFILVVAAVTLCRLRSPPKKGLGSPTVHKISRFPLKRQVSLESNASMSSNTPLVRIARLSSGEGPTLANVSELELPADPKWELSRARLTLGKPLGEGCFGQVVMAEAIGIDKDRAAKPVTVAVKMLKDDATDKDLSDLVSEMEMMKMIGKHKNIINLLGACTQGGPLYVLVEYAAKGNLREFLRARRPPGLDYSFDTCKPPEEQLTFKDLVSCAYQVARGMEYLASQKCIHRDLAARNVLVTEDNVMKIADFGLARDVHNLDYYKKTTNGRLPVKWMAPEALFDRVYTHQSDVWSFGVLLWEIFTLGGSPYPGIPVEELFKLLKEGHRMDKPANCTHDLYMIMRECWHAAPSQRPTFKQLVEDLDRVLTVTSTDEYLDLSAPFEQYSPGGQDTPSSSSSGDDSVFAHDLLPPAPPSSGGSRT
Chain of Hck (P08631 whole entry, looked up): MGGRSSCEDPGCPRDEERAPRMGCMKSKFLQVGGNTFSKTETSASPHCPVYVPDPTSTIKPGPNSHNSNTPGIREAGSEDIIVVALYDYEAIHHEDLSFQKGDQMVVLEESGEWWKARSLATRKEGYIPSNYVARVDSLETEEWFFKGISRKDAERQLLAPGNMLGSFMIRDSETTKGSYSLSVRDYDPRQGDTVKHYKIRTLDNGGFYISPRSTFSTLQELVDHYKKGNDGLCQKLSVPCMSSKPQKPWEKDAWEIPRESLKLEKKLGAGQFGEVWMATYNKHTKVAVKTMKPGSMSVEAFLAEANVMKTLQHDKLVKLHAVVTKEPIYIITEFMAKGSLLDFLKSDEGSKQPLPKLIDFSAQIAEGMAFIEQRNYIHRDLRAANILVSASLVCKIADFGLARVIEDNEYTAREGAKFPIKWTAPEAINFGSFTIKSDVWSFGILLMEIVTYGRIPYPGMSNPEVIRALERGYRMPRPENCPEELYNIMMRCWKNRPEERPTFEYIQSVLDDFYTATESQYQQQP

| Sequence | SH2 binding enrichment [1] | SH2 binding enrichment [2] | SH2 binding enrichment [3] | phosphorylation enrichment [4] | phosphorylation enrichment [5] | phosphorylation enrichment [6] | phosphorylation enrichment [7] | phosphorylation enrichment [8] | phosphorylation enrichment [9] | phosphorylation enrichment [10] | phosphorylation enrichment [11] | phosphorylation enrichment [12] | phosphorylation enrichment [13] | phosphorylation enrichment [14] | phosphorylation enrichment [15] | phosphorylation enrichment [16] |
| --- | --- | --- | --- | --- | --- | --- | --- | --- | --- | --- | --- | --- | --- | --- | --- | --- |
| GLRQSYFVEAQ [APCS_Y142_G141S] | 0.726 | 0.681 | 0.686 | 0.717 | 0.596 | 0.543 | 0.48 | 0.491 | 0.378 | 0.453 | 0.532 | 0.612 | 0.457 | 0.825 | 0.505 | 0.697 |
| GLSSAYGGLTS [KRT8_Y427] | 0.572 | 0.42 | 0.876 | 0.516 | 0.506 | 0.341 | 0.543 | 0.347 | 0.422 | 0.469 | 0.555 | 0.351 | 0.513 | 0.584 | 0.545 | 0.449 |
| GNLLIYTKFGK [HGD_Y166_E168K] | 0.755 | 0.571 | 0.666 | 1.31 | 1.26 | 0.991 | 1.5 | 0.666 | 0.532 | 2.02 | 0.921 | 0.572 | 1.46 | 1.28 | 1.36 | 0.788 |
| GPIFRYDLGGA [CYP11B1_Y81] | 0.859 | 0.518 | 0.97 | 0.777 | 0.568 | 0.345 | 0.497 | 0.431 | 0.466 | 0.394 | 0.478 | 0.432 | 0.45 | 0.822 | 0.357 | 0.433 |
| GPKFVYDEIDN [ACOX1_Y232_G231V] | 0.653 | 24.5 | 0.709 | 1.1 | 0.92 | 0.413 | 0.652 | 0.556 | 0.409 | 0.514 | 0.505 | 0.482 | 0.537 | 1.04 | 0.467 | 0.57 |
| GQRDLYSGLNE [CD3E_Y199_Q204E] | 0.64 | 0.724 | 0.878 | 1.23 | 0.716 | 2.58 | 0.566 | 1.3 | 1.94 | 5.28 | 1.12 | 0.555 | 4.4 | 0.89 | 9.08 | 0.653 |
| GRMLQYLTVND [PPFIBP2_Y663_R658G] | 0.998 | 0.598 | 0.99 | 0.792 | 0.811 | 0.319 | 0.593 | 0.477 | 0.42 | 0.436 | 0.52 | 0.51 | 0.401 | 0.97 | 0.489 | 0.575 |
| GRSTYYWPSPR [GAGE12J_Y10_R13S] | 0.923 | 0.898 | 1.12 | 1.78 | 7.45 | 17 | 6.32 | 11.1 | 1.44 | 7.28 | 10.5 | 7.32 | 6.75 | 0.796 | 7.41 | 5.22 |
| GTATAYLCRVK [ALPL_Y117_G120R] | 0.771 | 0.525 | 1.07 | 0.678 | 0.578 | 0.363 | 0.595 | 0.506 | 0.517 | 0.399 | 0.48 | 0.471 | 0.404 | 0.804 | 0.389 | 0.514 |
| GTPVMYTFDEF [COL10A1_Y623_YF] | 0.693 | 0.662 | 0.89 | 1.03 | 1.16 | 1.03 | 0.767 | 0.611 | 0.473 | 0.668 | 0.621 | 0.504 | 0.733 | 1.16 | 0.474 | 0.806 |
| GTYVIYVRFGG [FLNB_Y1687] | 0.782 | 0.533 | 1.1 | 1.22 | 1.04 | 0.498 | 0.868 | 0.696 | 0.516 | 0.752 | 0.604 | 0.511 | 0.62 | 1.32 | 0.597 | 0.736 |
| GVCKNYAEAKD [ALB_Y343_D338G] | 0.705 | 0.825 | 0.886 | 0.749 | 0.556 | 0.385 | 0.6 | 0.511 | 0.359 | 0.392 | 0.469 | 0.551 | 0.371 | 0.729 | 0.498 | 0.585 |
| GVLDIYGFDIL [MYO1A_Y382_E385D] | 0.784 | 0.427 | 0.839 | 0.978 | 0.955 | 0.465 | 0.69 | 0.566 | 0.524 | 2.69 | 0.67 | 0.448 | 3.78 | 1.07 | 2.12 | 0.621 |
| GVLKEYGGKVL [CPS1_Y529_V531G] | 0.559 | 0.29 | 0.963 | 0.588 | 0.537 | 0.374 | 0.546 | 0.343 | 0.354 | 0.396 | 0.393 | 0.361 | 0.364 | 0.686 | 0.403 | 0.415 |
| GVMLLYFGRFN [ADGRD1_Y85_T82M_YF] | 1.25 | 0.746 | 0.956 | 1.4 | 1.15 | 0.393 | 0.65 | 0.528 | 0.508 | 0.343 | 0.529 | 0.53 | 0.441 | 1.26 | 0.531 | 0.705 |
| GVTLLYYGRDN [ADGRD1_Y85_Y89D] | 1.04 | 0.807 | 1.13 | 0.923 | 1.39 | 0.841 | 0.894 | 0.629 | 0.408 | 0.816 | 0.605 | 0.543 | 0.545 | 1.01 | 1.01 | 0.685 |
